Test results taken from patent publication US20040043420A1, “Method of identifying conformation-sensitive binding peptides and uses thereof” (priority 2003, published 2004).

How the values were obtained:
[1] = target: T1, androgen receptor (Homo sapiens, UniProt P10275); type: cell-based; design: expressed in transfected cells
T1 sequence (P10275 1-920): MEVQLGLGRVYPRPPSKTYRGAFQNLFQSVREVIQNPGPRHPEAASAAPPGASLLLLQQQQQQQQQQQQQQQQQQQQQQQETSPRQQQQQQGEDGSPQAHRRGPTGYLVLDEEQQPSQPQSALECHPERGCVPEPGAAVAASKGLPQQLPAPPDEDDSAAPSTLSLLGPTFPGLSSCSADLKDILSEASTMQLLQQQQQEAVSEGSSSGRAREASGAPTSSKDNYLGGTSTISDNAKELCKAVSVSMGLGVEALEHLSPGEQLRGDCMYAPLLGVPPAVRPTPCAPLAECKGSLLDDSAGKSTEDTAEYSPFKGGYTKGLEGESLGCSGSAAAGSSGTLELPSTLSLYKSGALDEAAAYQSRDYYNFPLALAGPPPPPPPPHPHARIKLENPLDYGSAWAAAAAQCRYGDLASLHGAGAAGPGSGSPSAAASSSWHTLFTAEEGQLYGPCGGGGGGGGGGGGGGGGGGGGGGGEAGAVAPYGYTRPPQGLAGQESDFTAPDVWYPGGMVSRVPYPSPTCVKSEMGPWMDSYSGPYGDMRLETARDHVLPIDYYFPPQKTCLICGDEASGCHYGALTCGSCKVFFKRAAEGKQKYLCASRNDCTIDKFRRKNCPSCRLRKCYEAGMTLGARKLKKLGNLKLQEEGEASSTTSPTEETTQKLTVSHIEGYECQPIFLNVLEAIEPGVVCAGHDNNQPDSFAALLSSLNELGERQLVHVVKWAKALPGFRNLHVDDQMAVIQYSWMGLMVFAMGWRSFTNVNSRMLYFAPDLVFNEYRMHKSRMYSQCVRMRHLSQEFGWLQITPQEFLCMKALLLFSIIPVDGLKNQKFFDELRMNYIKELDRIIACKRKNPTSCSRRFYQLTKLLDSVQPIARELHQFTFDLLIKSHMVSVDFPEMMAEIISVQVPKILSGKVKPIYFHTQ
Description: We used a mammalian two-hybrid system to determine specificities of the AR-binding peptides previously identified, through screening of the aforementioned yeast library, as ligand-dependent in their binding activity. Ligand was provided to the cells so the interaction could be observed. The human hepatoma cell line, Huh-7, was used as the recipient of two-hybrid vectors, pM and pVP16 (Clontech) (FIGS. 6A and 6B), containing fusions with peptide and AR, respectively. According to Clontech literature, the Clontech vectors pM and VP16 generate fusions of protein X with the GAL4 DNA-BD and fusions of protein Y with the VP16AD, in the Mammalian MM Two-Hybrid Assay Kit (#K1602-1). (Note: pM and VP16 contain unique cloning sites in the same order and reading frame as the DNA-BD and AD, respectively, vectors in the yeast […] Two-Hybrid Systems.) A third vector, pG5CAT, provides a CAT reporter gene under the control of a GAL4-responsive element and minimal promoter of the adenovirus E1b. The three vectors are cotransfected into any suitable mammalian host cell line by standard methods. The interaction between proteins X and Y is then assayed by measuring CAT gene expression by any standard method. In the absence-of activation (i.e., no protein-protein interaction), the minimal E1b promoter will not express significant levels of CAT.
Briefly, cells are seeded in a 24-well culture plate to a density of 50-80% confluence in phenol red-free media containing charcoal-dextran stripped fetal bovine serum (10%). Following incubation overnight, cells are transfected with plasmids pM-peptide, pVP16-AR, pCMV-b-gal, and p5XGAL-Luc3 DNAs using lipofectamine 2000 (LifeTech) according to the manufacturer's protocol. Transfections are allowed to proceed for 6 hours and the transfection media is aspirated and replaced with recovery media for 18 hours. Following the recovery period, cells are treated with compound for 24 hours prior to cell harvesting. Cells are washed with PBS and then lysed using the lysis buffer from the Galacto-Light Plus β-galactosidase assay kit (Tropix). Assays for luciferase and β-galactosidase were performed as described by the manufacturer. Peptide/AR interactions are described in terms of the luciferase activity normalized for transfection efficiency using β-galactosidase activity (see FIG. 4A). Two types of useful information arose from these methods: 1) we generated a panel of useful peptide probes to analyze the conformational state of AR, and 2) we “fingerprinted” AR modulators with respect to AR conformation (FIG. 4B). […] FIG. 4B is the converse of 4A. It compares the ability of six ligands (DHT, MPA, CYP, RU486, FLUT and DHEAs to interact with AR in the presence of each of four peptides (D30, 5G11, B8H3 and […]). Thus, it is a “fingerprint” of each of the six ligands using a four peptide panel. (Note that “1269” and D30″ refer to the same peptide.)

[2] = target: T1, androgen receptor; type: cell-based; design: expressed in transfected cells; remark: listed apart in the source
[3] = target: T1, androgen receptor; assay: Yeast two-hybrid screening of unbiased X15 peptide library, ligand-induced β-galactosidase activity (FIG. 3, Table 503); type: cell-based; design: expressed in transfected cells; host or cells: Saccharomyces cerevisiae PJ69-4α
Description: Our library contained predominantly 15 random amino acid residues/peptide in order to identify motifs that might interact with nuclear receptor domains. If ligand is provided to the cells, one can screen for peptides that interact with the ligand-bound receptor. […] Included at the ends of the oligonucleotide were the synthetic restriction endonuclease cleavage sites, EcoRI or Mfe I (5′ end) and Sal I (3′ end). Oligonucleotides were annealed, then cleaved with excess restriction endonuclease and purified on agarose gels. The purified set of oligonucleotides was subcloned as an in-frame carboxy-terminal fusion to a Gal4 DNA binding domain (plasmid vector pMA424 derivative). […] The transformation mix was divided and grown on plates of selective media containing ligand and 25 mM 3-aminotriazole at 30° C. until colonies appeared in 3-7 days. […] Dihydrotestosterone (DHT) and medroxyprogesterone (MPA) were added to the media at 100 nM to identify peptides that interact with the receptor in the presence of ligand. After colonies appeared they were picked and dispersed into individual wells of a 96-well plate containing rich media (YPD).
To determine ligand dependence, two microliter aliquots were removed from the cell suspension, and arrayed and spotted onto each of two rectangular agar plates, one with 100 nM ligand and one without ligand. Growth was monitored daily.
A secondary test of ligand dependent activation was performed using the integrated GAL4-driven lacZ gene. Cell suspensions of the initial positive clones were diluted 20-fold into 20 microliters of rich media in a microplate and grown overnight at 30° C. in the presence and absence of ligand. Microplates were centrifuged for 5 minutes at 3000 rpm in a swinging table top centrifuge to pellet the yeast cells, and the overlying media was aspirated. […] An OD650 density determination was made to normalize the β-galactosidase activity. β-galactosidase activity was monitored following the addition of buffer containing chlorophenol red-1-galactopyranoside (CPRG) (Boehringer Mannheim) substrate at a final concentration of 0.5 mM. […] The maximum slope value of this measurement was normalized to cell density from the initial OD650 value, and the relative ligand dependence of β-galactosidase was determined by comparing the values plus and minus ligand.
In FIG. 3, all of these ligands were tested. The plasmids from true positives were extracted using standard yeast extraction protocols and re-transformed to verify the positive phenotype.

[4] = target: T2, ER β, Q92731; assay: phage ELISA, raloxifene 1 µM
T2 chain: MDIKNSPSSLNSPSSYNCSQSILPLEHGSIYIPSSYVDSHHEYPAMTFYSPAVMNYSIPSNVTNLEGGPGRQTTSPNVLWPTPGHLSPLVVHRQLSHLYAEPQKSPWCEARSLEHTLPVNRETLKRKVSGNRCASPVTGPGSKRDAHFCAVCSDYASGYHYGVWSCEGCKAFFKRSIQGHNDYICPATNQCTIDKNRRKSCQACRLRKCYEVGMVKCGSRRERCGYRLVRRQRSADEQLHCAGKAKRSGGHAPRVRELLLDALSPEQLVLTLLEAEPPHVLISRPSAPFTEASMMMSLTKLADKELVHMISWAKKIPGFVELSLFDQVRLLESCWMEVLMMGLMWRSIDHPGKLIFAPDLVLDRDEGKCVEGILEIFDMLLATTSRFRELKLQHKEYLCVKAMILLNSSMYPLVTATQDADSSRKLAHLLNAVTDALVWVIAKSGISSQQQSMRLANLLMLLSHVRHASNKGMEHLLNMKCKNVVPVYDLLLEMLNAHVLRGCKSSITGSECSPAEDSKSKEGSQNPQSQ

[5] = target: T2, ER β, Q92731; assay: phage ELISA, ICI 182,780 1 µM
[6] = target: T2, ER β, Q92731; assay: phage ELISA, clomiphene 10 µM
[7] = target: T2, ER β, Q92731; assay: phage ELISA, 4-OH tamoxifen 1 µM
[8] = target: T3, ER α, P03372; assay: peptide probe binding to ERα, Buffer
T3 chain: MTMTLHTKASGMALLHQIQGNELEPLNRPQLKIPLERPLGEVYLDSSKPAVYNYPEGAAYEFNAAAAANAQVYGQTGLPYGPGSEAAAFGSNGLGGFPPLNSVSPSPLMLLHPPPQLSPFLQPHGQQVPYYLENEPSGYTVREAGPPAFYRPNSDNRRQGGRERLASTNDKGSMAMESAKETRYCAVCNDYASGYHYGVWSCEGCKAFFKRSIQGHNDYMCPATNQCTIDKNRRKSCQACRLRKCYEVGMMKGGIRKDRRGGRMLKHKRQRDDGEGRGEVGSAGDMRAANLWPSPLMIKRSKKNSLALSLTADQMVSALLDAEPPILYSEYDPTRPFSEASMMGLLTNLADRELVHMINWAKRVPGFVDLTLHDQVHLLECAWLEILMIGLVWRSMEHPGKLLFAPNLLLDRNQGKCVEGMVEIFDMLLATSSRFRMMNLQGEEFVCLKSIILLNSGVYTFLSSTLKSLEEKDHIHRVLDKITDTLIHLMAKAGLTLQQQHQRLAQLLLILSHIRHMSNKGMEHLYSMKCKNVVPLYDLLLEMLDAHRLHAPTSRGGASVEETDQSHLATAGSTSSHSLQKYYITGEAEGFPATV

[9] = target: T3, ER α, P03372; assay: peptide probe binding to ERα, GW7604
[10] = target: T2, ER β, Q92731; assay: peptide probe binding to ERβ, Buffer
[11] = target: T3, ER α, P03372; assay: peptide probe binding to ERα, Estriol
[12] = target: T2, ER β, Q92731; assay: peptide probe binding to ERβ, Estriol
[13] = target: T2, ER β, Q92731; assay: peptide probe binding to ERβ, GW 7604
[14] = target: T3, ER α, P03372; assay: peptide probe binding to ERα, Clomiphene
[15] = target: T3, ER α, P03372; assay: peptide probe binding to ERα, Nafoxidine
[16] = target: T3, ER α, P03372; assay: peptide probe binding to ERα, Raloxifene
[17] = target: T3, ER α, P03372; assay: peptide probe binding to ERα, ICI 182,780
[18] = target: T3, ER α, P03372; assay: peptide probe binding to ERα, 17α-Estradiol
[19] = target: T3, ER α, P03372; assay: peptide probe binding to ERα, 17β-Estradiol
[20] = target: T2, ER β, Q92731; assay: peptide probe binding to ERβ, 17α-Estradiol
[21] = target: T2, ER β, Q92731; assay: peptide probe binding to ERβ, 17β-Estradiol
[22] = target: T3, ER α, P03372; assay: peptide probe binding to ERα, 4-OH Tamoxifen
[23] = target: T3, ER α, P03372; assay: peptide probe binding to ERα, Diethylstilbesterol
[24] = target: T2, ER β, Q92731; assay: peptide probe binding to ERβ, Diethylstilbesterol

## EFQQCMCAEVKSWLGGSLDLOPS* [B8E9]
[1]
  Mammalian Cell Specificity Graph (FIG. 4): CYP.: 16.02 Relative Light Units
[1]; ligand DHT
  Mammalian Cell Specificity Graph (FIG. 4): DHT: 19.64 Relative Light Units
[1]; ligand MPA
  Mammalian Cell Specificity Graph (FIG. 4): MPA: 18.51 Relative Light Units
[1]; ligand RU486
  Mammalian Cell Specificity Graph (FIG. 4): RU486: 10.1916 Relative Light Units
[1]; no compound
  Mammalian Cell Specificity Graph (FIG. 4): no compound: 0.2091 Relative Light Units
[2]; ligand present (agonists, known antagonists)
  Binding to the androgen receptor in the presence of agonists and known antagonists: displays binding
[2]; no ligand
  Binding to the androgen receptor in the absence of ligand: not in the absence of ligand
[3]
  Fold induction: 4
[3]; ligand CPA
  Yeast Specificity Graph (FIG. 3): CPA: 0.5635
[3]; ligand DHT
  Yeast Specificity Graph (FIG. 3): DHT: 1.75
[3]; ligand RU
  Yeast Specificity Graph (FIG. 3): RU: 0.8
[3]; no ligand
  Yeast Specificity Graph (FIG. 3): No Lig: 0.4989

## SSNHQSSRLIELLSR (modifications not checked) [phage 4 (Table 2)]
[4]
  phage ELISA grade: 0
[5]
  phage ELISA grade: 0
[6]
  phage ELISA grade: 0
[7]
  phage ELISA grade: 0
[8]
  Equiv.: 0%
[9]
  Equiv.: 0%
[10]
  Equiv.: 0%
[11]
  Equiv.: 65%
[12]
  Equiv.: 81%
[13]
  Equiv.: 0%
[14]
  Equiv.: 0%
[15]
  Equiv.: 0%
[16]
  Equiv.: 0%
[17]
  Equiv.: 0%
[18]
  Equiv.: 53%
[19]
  Equiv.: 100%
[20]
  Equiv.: 44%
[21]
  Equiv.: 100%
[22]
  Equiv.: 0%
[23]
  Equiv.: 71%
[24]
  Equiv.: 68%
